From patent US20060183664A1, “Pharmaceutical composition for delayed hypersensitivity” (priority 2001, published 2006)

Biological target: T1, PAR-2 (Homo sapiens, UniProt P55085)
T1 construct: expressed in transfected cells; host or cells: NCTC2544 cells
T1 sequence (P55085 26-397): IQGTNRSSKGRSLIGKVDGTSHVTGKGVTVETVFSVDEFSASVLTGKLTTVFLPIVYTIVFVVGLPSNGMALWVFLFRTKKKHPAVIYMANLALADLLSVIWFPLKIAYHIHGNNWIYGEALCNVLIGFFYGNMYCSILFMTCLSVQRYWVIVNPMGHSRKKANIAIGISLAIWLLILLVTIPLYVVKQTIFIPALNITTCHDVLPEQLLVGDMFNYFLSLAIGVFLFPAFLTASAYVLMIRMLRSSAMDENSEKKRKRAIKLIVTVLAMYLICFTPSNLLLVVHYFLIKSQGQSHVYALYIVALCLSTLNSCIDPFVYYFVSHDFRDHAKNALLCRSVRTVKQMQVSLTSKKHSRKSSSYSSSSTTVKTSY
Experiment: Assay of PAR-2 activation using inositol phosphates as an indicator in NCTC2544 cells with stably high expression of PAR-2
Type: cell-based
Conditions: subject substance added 15 min before stimulation
Source text: The invention also provides a novel method for measuring PAR-2 activity. PAR-2 belongs to G-protein-coupled receptor (GPCR) family, and produces inositol phosphates as a second messenger upon activation of the receptor. Based on this mechanism, the effects of subject substances in activation of PAR-2 can be determined quantitatively by quantifying produced inositol phosphates in PAR2-expressing cells by an ion chromatography or the like.
NCTC2544 cells with stably high expression of PAR-2 were cultured in the serum-free medium containing […]/ml of [^3H]-myo-inositol for 18 hours. Lithium chloride (final […]) was added 30 min before the stimulation, and subsequently cells were stimulated with trypsin (1 to 30 nM) or the PAR-2 agonist peptide, SLIGKV (10 to 300 μM). After 45 min the lipid component was extracted with methanol and separated using an anion exchanging resin (AG1-X, formate form). Then the yield of inositol phosphates was determined in a scintillation counter. The subject substance was added 15 min before the stimulation.

B1: trypsin inhibitor derived from soybeans: a trypsin inhibitor derived from soybeans, used as subject substance in the PAR-2 inositol phosphate assay (protein, UniProt P01070 25-205, looked up)
Trypsin inhibitor A: DFVLDNEGNPLENGGTYYILSDITAFGGIRAAPTGNERCPLTVVQSRNELDKGIGTIISSPYRIRFIAEGHPLSLKFDSFAVIMLCVGIPTEWSVVEDLPEGPAVKIGENKDAMDGWFRLERVSDDEFNNYKLVFCPQQAEDDKCGDIGISIDHDDGTRRLVVSKNKPLVVQFQKLDKESL
With B1 the “SLIGKV-mediated activation of PAR-2 (inositol phosphate production)” value (stimulation with PAR-2 activating peptide SLIGKV) was “not affected” and the “Trypsin-mediated activation of PAR-2 (inositol phosphate production)” value (stimulation with trypsin) was “inhibited”.
